Source: patent US20050048614A1, “Biosynthetic oncolytic molecules and uses therefor” (Children's Medical Center Corporation, priority 2000, published 2005)
Substitutions are numbered along the chain they refer to.

Tests used:
microtubules = test: effect on microtubules in treated cells; format: cell-based
Text: Based on a detailed understanding of the functional domains of osteopontin and an understanding of the role this multifunctional cytokine plays in the regulation of cellular apoptosis, biosynthetic molecules which mimic distinct functions of osteopontin are provided for use in a variety of therapeutic applications, in particular, in the treatment of cancer and inflammatory conditions such as arthritis. In particular, the biosynthetic molecules are useful in the elimination of abnormal or unwanted cells that express at least an integrin receptor and/or that co-express both an integrin and a CD44 receptor. Many of the biosynthetic molecules/peptides disclosed herein are believed to uncouple integrin signaling form CD 44 signaling, resulting in the stabilization of microtubules by down stream activation of rhoB. […] Cells treated with these molecules organize the arrays of disorganized microtubules into parallel bundles and freeze the normal, microtubular, mitotic bundle. As a result, the treated cells form several more asters at various locations with the cell, serving to further strengthen the cell's structure and preventing cell separation.
Many of the biosynthetic molecules/peptides disclosed herein are believed to uncouple integrin signaling form CD 44 signaling. […] Cells treated with these molecules organize the arrays of disorganized into parallel bundles and freeze the normal, microtubular, mitotic bundle. As a result, the treated cells form several more asters at various locations with the cell, serving to further strengthen the cell's structure and preventing cell separation.

[1] = system: metastatic tumor cell line; test: apoptosis assay, flow cytometric analysis of propidium iodide uptake; format: cell-based; conditions: apoptosis assays
Text: A first generation osteopontin-derived biosynthetic molecule, oncolysin N, was engineered based on the isolation of a domain of osteopontin sufficient to impart pro-apoptotic activity when isolated away from the naturally-occurring osteopontin polypeptide. In particular, the oncolysin N molecule was designed to include the following domains: (1) a signal sequence (i.e., signal peptide), derived in this instance from the native osteopontin amino acid sequence (i.e., amino acids 1-16 of the human osteopontin-B amino acid sequence set forth as SEQ ID NO:1); (2) a golgi processing domain derived from the native osteopontin amino acid sequence (i.e., amino acids 17-30 of the human osteopontin-B amino acid sequence set forth as SEQ ID NO:1); (3) a pro-apoptotic domain comprising contiguous amino acid residues of human osteopontin-B sufficient to induce apoptosis (i.e., amino acids 147-170 of the human osteopontin-B amino acid sequence set forth as SEQ ID NO:1) yet lacking additional osteopontin-B sequences which are unnecessary for apoptotic activity, or alternatively decrease pro-apoptotic activity, of the biosynthetic molecule; and (4) two linker domains, a first linker domain operably linking the signal sequence to the golgi processing domain, and a second linker domain operably linking the golgi processing domain to the pro-apoptotic domain. The signal sequence and golgi processing domain optimize synthesis, processing through the golgi and secretion of the biosynthetic oncolysin N molecule. […]
Cells are grown in culture and treated with varying doses of exogenous oncolysin N. Apoptosis is determined by flow cytometric analysis according to the uptake of propidium iodide. […] DNA cleavage in apoptotic cells is assessed by flow cytometric analysis, as cells containing hypodiploid nuclei bind less propidium iodide than intact nuclei.
Cellular apoptosis can also be determined using standard criteria in the art such as nuclear condensation, chromatin fragmentation, and viability as assessed by Trypan blue exclusion. […]

MDA-MB-231 tumor cells = test: tubulin staining by indirect fluorescent immunochemistry; format: cell-based, human; conditions: induced with 3 μg/ml Doxycycline, six hours; versus uninduced infected cells
Description: Oncolysin 1-infected MDA-MB-231 tumor cells were induced with 3 μg/ml of Doxycycline. After six hours, the cells were fixed in 10% formaldehyde then stained for tubulin using indirect fluorescent immunochemistry.

SHP-1 = test: signal transduction pathway in infected cells (FIG. 3), SHP-1; format: cell-based; conditions: infected cells compared to control cells
Text: (§1) FIG. 3 depicts an alteration in the signal transduction pathway in cells infected with oncolysin 1/Sophin C as compared to control cells.

[2] = system: breast, prostate and uterine tumors; test: tumor growth in breast, prostate and uterine tumor models, dose response (FIG. 5); format: in vivo
Description: The effect of Sophin C on tumor growth was evaluated for three tumor types, breast, prostate and uterine.

MDA-MB-231 xenografts = test: MDA-MB-231 xenograft tumor growth in nude mice (FIG. 4); format: in vivo; conditions: for tumor volume: compared to controls
Description: To evaluate the effectiveness of oncolysin 1/Sophin C against primary tumor growth and metastasis, 1×10^7 MDA-MB-231 breast cancer cells were injected subcutaneously into the left flank of nude mice. After six weeks the resulting tumors were aseptically dissected out, minced and 1 mm-tumor pieces were transplanted into the right flank of nude mice using a trocar needle. One weeks later, when tumors measured approximately 10 mm, mice were assigned to different experimental groups. One set of 24 animals bearing MDA-MB-231 xenografts were divided into 3 groups that received the following treatments: A first group of 8 animals were injected with pRetro-oncolysin (1×10^6 viral particles). After one day and weekly thereafter (for 3 weeks) these animals received a weekly injection of the inducing agent Doxycyxlin (1 mg/kg) through the peritoneal cavity. A second group of 8 animals received a weekly injection of Doxycyclin (uninfected tumors) and a third group received a weekly injection of oncolysin protein (10 μg/kg). In another set of experiments, the pRetro-oncolysin was injected into the marrow stroma of tumor bearing mice. After, day one, the animals were treated as above, with weekly injection of Doxycyclin. Tumors were measured once every two days with microcalipers, and tumor volume was calculated as length×width×height×0.5236. Body weight was measured on the day of the injection, 4 days later and weekly thereafter. Four days after the first injection, blood samples were collected from the tail vein using the Unopette™ micro-collection kit. Total leukocyte and platelet counts were determined manually using a hemocytometer. Blood smears stained with the Hema3™ kit were used for assessing absolute numbers of granulocytes and lymphocytes. Treatment-related toxicity was evaluated based on the differences in body weight, liver and kidney marker enzymes, and hematological parameters between treatment groups. 20 weeks after treatment, animals were killed by decapitation under anesthesia. […] Liver, heart, uterus, ovaries, lungs spinal cord and all long bones were evaluated histologically.

[3] = system: MDA-MB-231 Human Breast Cancer Cell; test: nuclear stain (H and E) of infected cells; format: cell-based; conditions: with or without doxycyclin induction for six hours
Text: Infected cells were stained with H and E without induction with doxycyclin or after induction for six hours.

MDA-MB-231 cells = test: FragEL apoptotic assay in cells infected with pRetro-oncolysin and induced with Doxycycline; format: cell-based, human; conditions: 48 h after infection, induced with 3 ug Doxycycline for 6 hours; versus uninduced cells
Description: 50,000 Breast tumor cells were infected with approximately 500,000 viral particles in DME+10% FBS containing 4 μg/ml polybrene. After 48 h., the MDA-MB-231 cells were induced with 3 ug of Doxycycline for 6 hours in defined media. Apoptosis was assessed using the FragEL™ apoptotic assay. Uninduced cells are viable and labeled blue when viewed at 10× magnification under a light microscope. […] Each experiment was performed in duplicates and repeated 3 times.

PI-3 kinase = test: signal transduction pathway in infected cells (FIG. 3), PI-3 kinase; format: cell-based; conditions: infected cells compared to control cells
Text: as §1

**Q.** How did the capping of microtubules (microtubules) turn out when “PGIPVKQADSGSSEEKGGGPGTPVVPTVDTYDGRGDSVVYGLRKKKAARGRRAARGRR (PGIPVKQADSGSSEEKGGGPGTPVVPTVDTYDGRGDSVVYGLRKKKAARGRRAARGRR) [SEQ ID NO:15]” was run?
**A.** The capping of microtubules was “inhibit the capping of microtubules”.

**Q.** And the polymerization of microtubules (microtubules)?
**A.** The polymerization of microtubules was “induces their unidirectional polymerization”.

**Q.** Which capping of microtubules (microtubules) does the source give for “GIPVKQADSGSSEEKGGGPPTPVVPTVDTYDGRGDSVVYGLRKKKAARG RRAARGRR (GIPVKQADSGSSEEKGGGPPTPVVPTVDTYDGRGDSVVYGLRKKKAARGRRAARGRR) [SEQ ID NO:10]” here?
**A.** Its capping of microtubules is “inhibit the capping of microtubules”.

**Q.** And the polymerization of microtubules (microtubules)?
**A.** Its polymerization of microtubules is “induces their unidirectional polymerization”.

**Q.** How did the capping of microtubules (microtubules) turn out when “PGIPVKQADSGSSEEKGGGPGTPVVPTVDTYDGRGDSVVYGLRKKKAAR GRRAARGRR (PGIPVKQADSGSSEEKGGGPGTPVVPTVDTYDGRGDSVVYGLRKKKAARGRRAARGRR) [SEQ ID NO:14]” was run?
**A.** The capping of microtubules was “inhibit the capping of microtubules”.

**Q.** And the polymerization of microtubules (microtubules)?
**A.** Its polymerization of microtubules is “induces their unidirectional polymerization”.

**Q.** Which “apoptotic activity (induction of apoptosis)” value (“apoptotic activity” below) [1] does the source give for “osteopontin-B: native human osteopontin-B, a preferred splice variant of the human osteopontin gene [reference compound]” here?
**A.** The value was “no apoptotic activity”.

**Q.** “PYAGRGDSVVYGLKKKNNQKAEPLIGRKKTR [SEQ ID NO:16]” was tested. Which capping of microtubules (microtubules) did it give?
**A.** Its capping of microtubules is “inhibit the capping of microtubules”.

**Q.** What about the polymerization of microtubules (microtubules) of the same molecule?
**A.** Its polymerization of microtubules is “induces their unidirectional polymerization”.

B1: … VYGLRKKKAARGRRAARGRR (protein)
chain: HHGHHGGHHHPGIPVKQADSGSSEEKGGGPPTPVVPTVDTYDGRGDSVVYGLRKKKAARGRRAARGRR
modifications: His tag
**Q.** What does the source list for B1?
**A.** capping of microtubules (microtubules): inhibit the capping of microtubules; polymerization of microtubules (microtubules): induces their unidirectional polymerization

B2: MRIAVICFCLLGITCAGGGPGIPVKQADSGSSEEKGGGPGTPVVPTVDTY DGRGDSVVYGLRSKKAARGRRAARGRR (protein)
chain: MRIAVICFCLLGITCAGGGPGIPVKQADSGSSEEKGGGPGTPVVPTVDTYDGRGDSVVYGLRSKKAARGRRAARGRR
**Q.** How did the capping of microtubules (microtubules) turn out when B2 was run?
**A.** The capping of microtubules was “inhibit the capping of microtubules”.

**Q.** And the polymerization of microtubules (microtubules)?
**A.** The polymerization of microtubules was “induces their unidirectional polymerization”.

B3: MRIAVICFCLLGITCAGGGPGIPVKQADSGSSEEKGGGPGTPVVPTVDTY DGRGDSVVYGLRKKKAARGRRAARGRR (protein)
chain: B2 chain with S63K
**Q.** Which capping of microtubules (microtubules) does the source give for B3 here?
**A.** Its capping of microtubules is “inhibit the capping of microtubules”.

**Q.** And the polymerization of microtubules (microtubules)?
**A.** Its polymerization of microtubules is “induces their unidirectional polymerization”.

B4: Oncolysin 2: second generation molecule: oncolysin N with a synthetic collagen binding domain at the C terminus (protein)
chain: MRIAVICFCLLGITCAGGGPGIPVKQADSGSSEEKGGGPGTPVVPTVDTYDGRGDSVVYGLRSKPAGAAGGPAGPAGPAGPAGPAGP
**Q.** With B4 as the molecule, how does the “apoptotic activity” value [1] read?
**A.** Its value is “more effective at promoting apoptosis than oncolysin N”.

B5: oncolysin 1/Sophin C: second generation molecule: oncolysin N with synthetic heparin binding domain (RSKK and RGRR) at the C terminus; 71mer (protein)
chain: MRIAVICFCLLGITCAGGGPGIPVKQADSGSSEEKGGGPGTPVVPTVDTYDGRGDSVVYGLRSKKAARGRR
**Q.** B5 was tested. Which capping of microtubules (microtubules) did it give?
**A.** The capping of microtubules was “inhibit the capping of microtubules”.

**Q.** What about the polymerization of microtubules (microtubules) of the same molecule?
**A.** Its polymerization of microtubules is “induces their unidirectional polymerization”.

**Q.** And the tubulin staining (MDA-MB-231 tumor cells)?
**A.** Its tubulin staining is “stabilized tubulin around multi-nuclei”.

**Q.** And the “apoptotic activity” value [1]?
**A.** The value was “dramatically increase apoptotic activity”.

**Q.** What about the SHP-1 protein expression (SHP-1) of the same molecule?
**A.** Its SHP-1 protein expression is “decreased SHP-1 protein expression”.

**Q.** What about the tumor volume ([2]; 50 μg/kg protein) of the same molecule?
**A.** Its tumor volume is “reduction in tumor volume”.

**Q.** What about the tumor volume ([2]; 500 μg/kg protein) of the same molecule?
**A.** The tumor volume was “reduction in tumor volume”.

**Q.** And the “health of treated mice” value (MDA-MB-231 xenografts; all treated mice, after approximately 6 months, control animals died or were sacrificed)?
**A.** Its value is “remained healthy”.

**Q.** What about the tumor volume (MDA-MB-231 xenografts; group 1: pRetro-oncolysin 1×10^6 viral particles plus weekly Doxycyclin 1 mg/kg) of the same molecule?
**A.** The tumor volume was “striking reduction in tumor volume”.

**Q.** What about the tumor volume (MDA-MB-231 xenografts; group 3: weekly injection of oncolysin protein 10 μg/kg) of the same molecule?
**A.** The tumor volume was “striking reduction in tumor volume”.

**Q.** And the multinucleation [3]?
**A.** Its multinucleation is “Multinucleation was observed only in induced cells”.

**Q.** And the “apoptosis (FragEL staining)” value (MDA-MB-231 cells)?
**A.** The value was “undergo apoptosis”.

**Q.** And the PI-3 kinase expression (PI-3 kinase)?
**A.** The PI-3 kinase expression was “increased PI-3 kinase expression”.
